The values that follow come from publication PMC5737657 (Nucleic Acids Research, 2017).

First the molecules themselves.
B1: VapB26 antitoxin (untagged, native, co-expressed with VapC26) (natural protein)
chain: MDKTTVYLPDELKAAVKRAARQRGVSEAQVIRESIRAAVGGAKPPPRGGLYAGSEPIARRVDELLAGFGER
B2: VapC26 toxin with N-terminal (His)6 tag (native, co-expressed with VapB26) (natural protein)
chain: MIIDTSALLAYFDAAEPDHAAVSECIDSSADALVVSPYVVAELDYLVATRVGVDAELAVLRELAGGAWELANCGAAEIEQAARIVTKYQDQRIGIADAANVVLADRYRTRTILTLDRRHFSALRPIGGGRFTVIP

Assay [1] has as its target B2. Briefly: crystal structure.
Assay [2] deals with VapB26 Y51E (Mycobacterium tuberculosis, UniProt O53778 1-71, Y51E). Briefly: co-purification on a Ni2+ affinity column.

For B1, the binding result in assay [1] is “binds”. With B2, in assay [2], the binding result was “binds”.
